These results are taken from patent publication US20130251640A1.

In the experiment the target is trypsin (trypsin-EDTA 0.25%, Sigma-Aldrich). The experiment in a line: cell-based or functional assay.

Turning to “PLL-FITC (poly-L-lysine conjugated with fluorescein isothiocyanate, FITC/PLL=10/1)”, the change in FITC fluorescence signal (dequenching) is more than 34 fold.
